Measurements: paper PMC5098445 (mAbs, 2016)

Target: human insulin-like growth factor 1 receptor (Homo sapiens, UniProt P08069)
Test: SPR

Chain of human insulin-like growth factor 1 receptor (P08069 31-1367): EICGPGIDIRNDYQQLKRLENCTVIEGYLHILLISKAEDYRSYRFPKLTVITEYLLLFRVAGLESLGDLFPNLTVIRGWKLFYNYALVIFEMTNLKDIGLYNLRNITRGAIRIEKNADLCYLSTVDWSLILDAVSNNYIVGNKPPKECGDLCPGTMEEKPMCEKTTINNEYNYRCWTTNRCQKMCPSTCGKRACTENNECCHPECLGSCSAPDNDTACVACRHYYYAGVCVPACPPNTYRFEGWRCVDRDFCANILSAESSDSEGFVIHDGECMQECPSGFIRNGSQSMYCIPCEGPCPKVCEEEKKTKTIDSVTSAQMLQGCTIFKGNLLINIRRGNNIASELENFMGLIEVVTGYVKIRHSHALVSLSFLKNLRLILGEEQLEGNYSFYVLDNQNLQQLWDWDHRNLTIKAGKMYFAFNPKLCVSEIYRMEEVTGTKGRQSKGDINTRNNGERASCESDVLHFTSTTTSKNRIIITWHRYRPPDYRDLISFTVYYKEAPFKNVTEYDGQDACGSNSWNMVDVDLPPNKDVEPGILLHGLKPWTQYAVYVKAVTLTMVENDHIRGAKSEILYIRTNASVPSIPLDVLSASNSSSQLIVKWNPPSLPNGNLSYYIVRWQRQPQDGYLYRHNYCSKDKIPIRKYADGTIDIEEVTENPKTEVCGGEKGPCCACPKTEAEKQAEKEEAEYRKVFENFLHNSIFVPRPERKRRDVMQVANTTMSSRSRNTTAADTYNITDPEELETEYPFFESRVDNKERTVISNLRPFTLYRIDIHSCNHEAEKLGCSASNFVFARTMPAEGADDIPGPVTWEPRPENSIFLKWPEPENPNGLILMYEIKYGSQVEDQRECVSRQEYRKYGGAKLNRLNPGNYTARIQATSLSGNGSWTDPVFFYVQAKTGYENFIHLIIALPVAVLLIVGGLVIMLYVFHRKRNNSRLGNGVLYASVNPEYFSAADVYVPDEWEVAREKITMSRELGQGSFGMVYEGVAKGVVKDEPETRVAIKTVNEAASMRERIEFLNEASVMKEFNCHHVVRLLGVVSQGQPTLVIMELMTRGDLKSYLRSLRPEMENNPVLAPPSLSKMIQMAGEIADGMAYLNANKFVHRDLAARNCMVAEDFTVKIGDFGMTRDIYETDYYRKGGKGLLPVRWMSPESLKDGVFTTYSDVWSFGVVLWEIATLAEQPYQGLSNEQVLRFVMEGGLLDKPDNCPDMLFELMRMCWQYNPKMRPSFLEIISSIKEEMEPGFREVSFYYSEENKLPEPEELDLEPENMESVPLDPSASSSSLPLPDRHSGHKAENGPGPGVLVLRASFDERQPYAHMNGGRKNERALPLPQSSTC

| binding result | Binder |
| --- | --- |
| binds | scFv of AK18 (IGF-1R-binding region) (scFv, V domains shown) VH: QVELVESGGGVVQPGRSQRLSCAASGFTFSSYGMHWVRQAPGKGLEWVAIIWFDGSSTYYADSVRGRFTISRDNSKNTLYLQMNSLRAEDTAVYFCARELGRRYFDLWGRGTLVSVSS VL: EIVLTQSPATLSLSPGERATLSCRASQSVSSYLAWYQQKPGQAPRLLIYDASKRATGIPARFSGSGSGTDFTLTISSLEPEDFAVYYCQQRSKWPPWTFGQGTKVESK |
| binds | scFv of F13B5 (IGF-1R-binding region) (scFv, V domains shown) VH: QVELVESGGGVVQPGRSQRLSCAASGFTFSSYGMHWVRQAPGKGLEWVAIIWFDGSSTYYADSVRGRFTISRDNSKNTLYLQMNSLRAEDTAVYFCARELGRRYFDLWGRGTLVSVSS VL: EIVLTQSPATLSLSPGERATLSCRASQSVSSYLAWYQQKPGQAPRLLIYQASKRATGIPARFSGSGSGTDFTLTISSLEPEDFAVYYCQQRSKYPPWTFGQGTKVESK |
